{"source": "paper PMC13546301", "about": "“Ternary Neurexin-T178-PTPR complexes represent a pre-synaptic core-module of neuronal synapse organization” (Nature Communications, 2026)", "binders": {"B1": {"name": "HA-tagged NRX1A (natural protein)", "chain": "not shown", "notes": "Neurexin-1-alpha; in pCAG, from Addgene (#58622); also called NRX1A-HA; source: tsA201 cells, transfected, CL-91-solubilised membrane fraction"}}, "target": "T1, V5-tagged PTPRS (UniProt B0V2N1 30-1907)", "T1 construct": "Receptor-type tyrosine-protein phosphatase S; cDNA GenBank BC083188.1; also called PTPRSV5; source: tsA201 cells, transfected, CL-91-solubilised membrane fraction; not shown: V5, C-terminal, kept", "T1 sequence (B0V2N1 30-1907)": "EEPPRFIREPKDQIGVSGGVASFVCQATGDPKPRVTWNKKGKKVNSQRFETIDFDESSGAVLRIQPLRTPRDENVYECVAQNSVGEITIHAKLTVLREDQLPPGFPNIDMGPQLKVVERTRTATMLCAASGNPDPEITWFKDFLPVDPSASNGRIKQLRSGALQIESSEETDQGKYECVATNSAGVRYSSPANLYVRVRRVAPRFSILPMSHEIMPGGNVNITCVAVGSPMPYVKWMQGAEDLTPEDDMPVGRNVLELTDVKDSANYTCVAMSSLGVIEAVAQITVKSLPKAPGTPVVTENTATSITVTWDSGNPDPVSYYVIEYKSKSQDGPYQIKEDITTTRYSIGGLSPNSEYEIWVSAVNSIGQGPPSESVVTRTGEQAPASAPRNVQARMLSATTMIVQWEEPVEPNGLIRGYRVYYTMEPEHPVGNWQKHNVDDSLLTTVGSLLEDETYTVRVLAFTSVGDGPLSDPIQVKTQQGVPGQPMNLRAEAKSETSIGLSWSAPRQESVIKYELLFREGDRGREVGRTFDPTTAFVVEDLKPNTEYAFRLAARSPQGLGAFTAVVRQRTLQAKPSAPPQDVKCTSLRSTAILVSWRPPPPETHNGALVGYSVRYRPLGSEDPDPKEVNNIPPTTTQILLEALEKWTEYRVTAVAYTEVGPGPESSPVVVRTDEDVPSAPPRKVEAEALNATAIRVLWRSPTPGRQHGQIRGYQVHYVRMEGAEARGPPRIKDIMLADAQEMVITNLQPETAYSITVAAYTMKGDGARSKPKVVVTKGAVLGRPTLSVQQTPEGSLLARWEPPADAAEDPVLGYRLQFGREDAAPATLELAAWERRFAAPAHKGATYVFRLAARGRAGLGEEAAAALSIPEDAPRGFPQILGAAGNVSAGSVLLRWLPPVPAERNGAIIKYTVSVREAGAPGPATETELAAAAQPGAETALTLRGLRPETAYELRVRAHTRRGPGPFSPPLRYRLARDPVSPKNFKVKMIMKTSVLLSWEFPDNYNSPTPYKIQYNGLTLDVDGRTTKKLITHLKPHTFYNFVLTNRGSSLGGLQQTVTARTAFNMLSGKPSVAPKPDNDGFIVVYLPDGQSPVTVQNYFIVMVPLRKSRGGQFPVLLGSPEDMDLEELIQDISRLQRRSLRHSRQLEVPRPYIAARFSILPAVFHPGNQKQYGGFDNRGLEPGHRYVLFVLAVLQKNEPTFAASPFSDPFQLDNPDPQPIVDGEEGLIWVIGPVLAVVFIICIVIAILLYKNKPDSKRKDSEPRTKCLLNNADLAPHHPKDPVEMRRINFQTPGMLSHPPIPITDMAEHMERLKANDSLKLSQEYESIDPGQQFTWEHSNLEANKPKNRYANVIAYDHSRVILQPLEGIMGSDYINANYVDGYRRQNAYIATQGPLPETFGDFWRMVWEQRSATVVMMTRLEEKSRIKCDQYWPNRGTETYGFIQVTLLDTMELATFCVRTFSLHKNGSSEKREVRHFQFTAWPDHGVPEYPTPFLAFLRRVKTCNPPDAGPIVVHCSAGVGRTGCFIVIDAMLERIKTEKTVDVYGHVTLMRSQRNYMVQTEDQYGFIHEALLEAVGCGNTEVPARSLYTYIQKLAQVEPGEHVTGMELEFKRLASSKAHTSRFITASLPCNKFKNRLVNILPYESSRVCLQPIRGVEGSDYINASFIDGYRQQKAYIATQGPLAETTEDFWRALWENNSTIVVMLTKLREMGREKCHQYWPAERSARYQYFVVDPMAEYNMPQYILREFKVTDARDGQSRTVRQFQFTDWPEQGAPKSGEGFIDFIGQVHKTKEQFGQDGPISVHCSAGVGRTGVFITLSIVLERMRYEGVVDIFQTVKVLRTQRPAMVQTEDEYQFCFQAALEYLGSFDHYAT", "experiment": "affinity purification with mass spectrometry; anti-V5 APs from tsA201 cells expressing NRX1A and PTPRS-V5 with or without T178B; normalized abundance of NRX1A by MS, two independent APs with two controls", "settings": "partners not purified"}
{"binder": "B1", "values": [{"measurement": "fold increase of the interaction with T178B against pairwise expression without T178B", "result": 10, "unit": "fold"}]}
